Laboratory results as given in patent US7494647 (Chugai, dated 2009).
Positions count from the first letter of the chain named. Where two headings read alike, the source gives them in different places.

B1: H chain humanized version b/L chain humanized version b antibody (antibody, IgG4, V domains shown)
VH: QVQLLESGAVLARPGTSVKISCKASGFNIKDYYMHWVKQRPGQGLEWIGGNDPANGHSMYDPKFQGRVTITADTSTNTAYMELSSLRSEDTAIYYCARDSGYAMDYWGQGTLVTVSS
VL: DIQMTQSPSSLSASVGDRVTITCKASQDIKSFLSWYQQKPGKAPKLLIYYATSLADGVPSRFSGSGSGTDYTLTISSLQPEDFATYYCLQHGESPYTFGGGTKVEIK
notes: also called b-b; bb
B2: H chain humanized version a/L chain humanized version a antibody (antibody, IgG4, V domains shown)
VH: QVQLLESGAVLARPGTSVKISCKASGFNIKDYYMHWVKQRPGQGLEWIGGNDPANGHSMYDPKFQGRAKLTAATSASIAYLEFSSLTNEDSAVYYCARDSGYAMDYWGQGTLVTVSS
VL: B1 VL with Y71F
B3: H chain humanized version b/L chain humanized version c antibody (antibody, V domains shown)
VH: B1 VH
VL: B1 VL with F83I
notes: also called b-c
B4: H chain chimeric/L chain humanized version c antibody (antibody, IgG4, V domains shown)
VH: EVQLQQSGTNLVRPGALVKLSCKGSGFNIKDYYMHWVKQRPEQGLEWIGGNDPANGHSMYDPKFQGKASITADTSSNTAYLQLSSLTSEDTAVYFCARDSGYAMDYWGQGTSVTVSS
VL: B1 VL with F83I
notes: H chain V region is that of mouse ATR-5; also called ch-c
B5: H chain chimeric/L chain humanized version a antibody (antibody, IgG4, V domains shown)
VH: B4 VH
VL: B1 VL with Y71F
notes: H chain V region is that of mouse ATR-5
B6: H chain chimeric/L chain chimeric antibody (chimeric ATR-5 antibody) (antibody, V domains shown)
VH: B4 VH
VL: DIKMTQSPSSMYASLGERVTITCKASQDIKSFLSWYQQKPWKSPKTLIYYATSLADGVPSRFSGSGSGQDYSLTINNLESDDTATYYCLQHGESPYTFGGGTKLEIK
notes: Mouse ATR-5 V regions joined to human C regions; Both an IgG1 (N5KG1(V)) and an IgG4 (N5KG4P) kappa form were made; also called ch-ch; cha-cha

Columns and labels:
[1] = target: T1, soluble human TF (human TF 1-219 with the FLAG peptide linked to the C-terminal) (human, UniProt P13726 33-251); assay: BIACORE; antibody captured on Protein G chip, soluble TF as analyte; mean ± SD, n = 3
T1 construct: Entry is the whole soluble construct (TF 1-219 followed by FLAG peptide M2); also called soluble TF; shTF
T1 sequence (P13726 other isoform, or with tags, fused parts or gaps limits assumed): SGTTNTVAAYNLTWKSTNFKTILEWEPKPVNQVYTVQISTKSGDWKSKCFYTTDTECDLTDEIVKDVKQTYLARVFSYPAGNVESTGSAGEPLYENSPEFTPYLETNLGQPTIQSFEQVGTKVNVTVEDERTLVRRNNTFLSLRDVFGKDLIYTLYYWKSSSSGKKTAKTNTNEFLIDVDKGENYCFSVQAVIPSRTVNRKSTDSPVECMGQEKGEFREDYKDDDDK
Protocol: Kinetic analysis of the antigen-antibody reaction was carried out using BIACORE. The recombinant Protein G was immobilized on a sensor chip, to which the antibody was coupled. The purified recombinant TF (a soluble TF in which the FLAG peptide was tagged at 1-219) was used as the antigen, and the-soluble TF prepared at various concentrations were used as analytes. From the sensorgram obtained, kinetic parameters (dissociation rate constants kdiss, and binding rate constants kass) were calculated.
As the running buffer, the HBS-EP buffer was used. Ten μl Of […] antibody solution was injected at a flow rate of 20 μl/min to immobilize antibody. The antibody was diluted with the HBS-EP buffer. Forty μl Of the soluble human TF solution at various concentrations were injected at a flow rate of 30 μl/min thereto. In the analysis, 80 seconds for injection was set as the binding phase and then changed to the HBS-EP buffer to set the dissociation phase of 120 seconds. After the dissociation phase was over, 10 μl of 20 mM hydrochloric acid was injected to reconstitute the sensor chip. The binding, dissociation, and reconstitution were set as one cycle, and the sensorgram was obtained for each antibody. The soluble human TF solution was prepared at concentrations of 250 nM, 125 nM, 62.5 nM, 31.3 nM, 15.6 nM, 7.81 nM, and 3.91 nM using the HBS-EP buffer. As the blank, the sensorgram obtained by injecting the HBS-EP buffer used for dilution was used.
The data file of interest was read in, and the comparison of reaction patterns by superscription was made using as the baseline the sensorgram of the HBS-EP buffer. Furthermore, using an analytical application software "BIAevaluation 2.1" (Pharmacia) exclusively for BIACORE that calculates kinetic parameters (binding rate constants kass and dissociation rate constants kdiss) by curve-fitting, kinetic analysis of interaction was performed. In order to determine the binding rate constants kass, the analysis model type 4 was used (BIAevaluation 2.1 Software Hand book, A1-A5). Based on the values calculated from each flow cell, kinetic parameters for each antibody were obtained.

[2] = target: T2, human tissue factor (TF) on human bladder carcinoma cells J82 (human, UniProt P13726 33-295); assay: cell ELISA on paraformaldehyde-fixed J82 cells; AP-conjugated goat anti-human IgGγ; absorbance 405/655 nm
T2 construct: whole, on cells; also called the antigen; J82 cells
T2 sequence (P13726 33-295): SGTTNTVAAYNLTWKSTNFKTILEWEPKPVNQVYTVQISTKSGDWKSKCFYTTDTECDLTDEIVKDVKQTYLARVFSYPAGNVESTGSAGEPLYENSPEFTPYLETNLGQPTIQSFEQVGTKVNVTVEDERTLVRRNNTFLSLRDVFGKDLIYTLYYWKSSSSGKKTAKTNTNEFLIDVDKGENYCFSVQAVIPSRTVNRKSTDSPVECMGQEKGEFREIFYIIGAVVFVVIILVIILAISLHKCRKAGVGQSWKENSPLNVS
Protocol: (§1) Cell ELISA plates for measurement of antigen binding were prepared as follows. Cells used were human bladder carcinoma cells J82 (ATCC HTB-1). To 60 wells of a 96-well cell culture plate, 1 ×10^5 J82 cells were inoculated. This was cultured (RPMI1640 medium containing 10% fetal bovine serum (GIBCO)) for one day in a CO_2 incubator to allow the cells to be attached thereto. After discarding the culture liquid, each well was washed twice with 300 μl PBS. 100 μl of PBS containing 4% paraformaldehyde (hereinafter referred to as PFA/PBS) was added to each well, and placed on ice for 10 minutes to immobilize the cells.
(§2) PFA/PBS was discarded, and each well was washed twice with 300 μl of PBS, and then blocked with 250 μl of DB. The culture supernatant or purified antibody was serially diluted with DB, 100 μl of which was added to each well. After incubating at room temperature for 2 hours followed by washing with RB, 100 μl of alkaline phosphatase-conjugated goat anti-human IgGγ antibody (BioSource) diluted 1000-fold with DB was added. After incubating for 1 hour followed by washing with RB, the substrate solution was added, and then absorbance at 405/655 nm was measured using the Microplate Reader (Bio-Rad).

TF/Factor VIIa complex [3] = target: T3, TF/Factor VIIa complex (human, UniProt P13726 33-295; P08709 61-466)
T3 sequence (P13726 33-295 limits assumed, chain 1 of 2): as the sequence (P13726 33-295) above
T3 sequence (P08709 61-466 limits assumed, chain 2 of 2): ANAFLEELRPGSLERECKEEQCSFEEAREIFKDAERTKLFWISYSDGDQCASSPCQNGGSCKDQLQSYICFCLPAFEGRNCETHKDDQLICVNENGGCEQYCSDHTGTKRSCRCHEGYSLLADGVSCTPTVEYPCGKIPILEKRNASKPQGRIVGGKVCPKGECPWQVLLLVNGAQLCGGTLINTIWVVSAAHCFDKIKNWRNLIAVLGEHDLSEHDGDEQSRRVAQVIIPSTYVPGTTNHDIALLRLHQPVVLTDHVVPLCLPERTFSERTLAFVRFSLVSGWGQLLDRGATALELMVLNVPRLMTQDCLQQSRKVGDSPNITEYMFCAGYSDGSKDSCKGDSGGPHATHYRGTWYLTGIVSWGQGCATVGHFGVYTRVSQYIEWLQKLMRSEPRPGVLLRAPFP

[4] = target: T2, human tissue factor (TF) on human …; assay: cell ELISA on paraformaldehyde-fixed J82 cells; AP-conjugated goat anti-human IgGγ; absorbance 405/655 nm; remark: listed apart in the source
Protocol: as §1, §2

[5] = target: T2, human tissue factor (TF) on human …; assay: as above; remark: listed apart in the source
Protocol: as §1, §2

[6] = target: T2, human tissue factor (TF) on human …; assay: as above; remark: listed apart in the source
Protocol: as §1, §2

[7] = target: T2, human tissue factor (TF) on human …; assay: as above; remark: listed apart in the source
Protocol: as §1, §2

TF/Factor VIIa complex [8] = target: T3, TF/Factor VIIa complex; assay: cell-based or functional assay

| Binder | Kd [1] | koff [1] | kon [1] | EC50 (read off the curve) [2] | EC50 (read off the curve) [4] | EC50 (read off the curve) [5] | EC50 (read off the curve) [6] | EC50 (read off the curve) [7] | also measured |
| --- | --- | --- | --- | --- | --- | --- | --- | --- | --- |
| B1 | 2.3 nM | 0.000952 s⁻¹ | 415000 M⁻¹ s⁻¹ | ~0.07 µg/mL | ~0.05 µg/mL |  |  |  | IC50 (read off the curve) (TF/Factor VIIa complex [3]): 0.1 µg/mL |
| B2 |  |  |  |  |  | ~0.03 µg/mL |  |  |  |
| B3 |  |  |  |  | ~0.05 µg/mL |  |  |  |  |
| B4 |  |  |  |  |  |  | ~0.07 µg/mL |  |  |
| B5 |  |  |  |  |  |  |  | ~0.03 µg/mL |  |
| B6 | 1.09 nM | 0.000506 s⁻¹ | 465000 M⁻¹ s⁻¹ | ~0.07 µg/mL | ~0.04 µg/mL | ~0.05 µg/mL | ~0.08 µg/mL | ~0.04 µg/mL | IC50 (read off the curve) (TF/Factor VIIa complex [8]): ~0.2 µg/mL |
